Laboratory results: patent CN113956356A (FUZHOU MAIXIN BIOTECHNOLOGY DEV CO LTD, dated 2022)

Target: T1, 人PRL蛋白 (native prolactin in pituitary tumour tissue sections) (human, UniProt P01236 29-227)
T1 construct: Endogenous protein detected by immunohistochemistry in paraffin sections of pituitary tumours; also called 催乳素
T1 sequence (looked up): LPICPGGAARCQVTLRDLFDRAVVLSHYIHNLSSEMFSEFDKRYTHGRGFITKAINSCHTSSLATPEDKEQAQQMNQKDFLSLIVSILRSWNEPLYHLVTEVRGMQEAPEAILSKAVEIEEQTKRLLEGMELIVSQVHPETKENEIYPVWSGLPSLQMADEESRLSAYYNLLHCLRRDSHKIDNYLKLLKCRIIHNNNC
Assay: immunohistochemistry on 9 pituitary tumour sections

B1: 抗PRL蛋白单克隆抗体(2C10D5H11) (antibody, V domains shown)
VH: QIQLVQSGPELKKPGETVKISCKASGYSFTNSAMSWVHQAPGKGLKWMGFINTKTGEPTYVEEFRGRFVFSLETSASTAYLQINNLKNEDTATYFCAKETDNSDDYWGQGTTLTVSS
VL: QIVLTQSPAIMSASPGEMVTLTCSASSSVSSSYLYWYQQKPGSSPKLWIYSTSNLASGVPARFSGSGSGTSYSLTISSMEAEDAASYFCHQWSSYPPTFGGGTKLEIK
notes: also called anti-PRL monoclonal antibody; antibody of hybridoma CGMCC NO.22311
B1: binds.
